Experimental findings from paper PMC10034259 are described below.

This test deals with cys-protein G conjugated to a peptide nucleic acid strand (PG-PNA).

The term stoichiometry N denotes the number of molecules, sites or subunits per partner or assembly.

Regarding “RBD, Fc (SARS-CoV-2 spike receptor binding domain with Fc) (from UniProt P0DTC2) (Fc fusion)”, the stoichiometry N was 2.82 RBD:PG.
